{
  "source": "paper PMC3320615",
  "about": "“β-Microseminoprotein Endows Post Coital Seminal Plasma with Potent Candidacidal Activity by a Calcium- and pH-Dependent Mechanism” (PLoS Pathogens, 2012)",
  "key": {"[1]": {"system": "Candida albicans ATCC 90028", "test": "CFU assay with C. albicans", "format": "cell-based", "conditions": "for Estimate (difference between means of log values): control - treatment, pH 4", "procedure,_shortened": "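About 4×10^3–10^4 CFU of C. albicans (ATCC 90028 unless stated) exposed to test substance in 10 mM Tris, 5 mM glucose at pH 7.4 or pH 4 for 4 h at 37 °C. Survivors counted as colonies after 2 days at 30 °C; log counts compared with control.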"}, "[2]": {"test": "Liposome leakage (carboxyfluorescein release)", "format": "biochemical", "conditions": "% ± SD of leakage with Triton X-100, CF fluorescence 520 nm, 37°C, at least triplicate", "method": "Subsequently, buffer (10 mM Tris, pH 7.4) was added together with 0.1 M carboxyfluorescein (CF) (Sigma, St Louis, MO). After hydration, the lipid mixture was subjected to eight freeze-thaw cycles consisting of freezing in liquid nitrogen and heating to 60°C. Unilamellar liposomes of about Ø140 nm were generated by multiple extrusions through polycarbonate filters (pore size 100 nm) mounted in a […] (Avestin, Ottawa, Canada) at 22°C. Untrapped CF was then removed by two gel filtrations (Sephadex G-50) at 22°C, with Tris buffer as eluent. CF release was determined by monitoring the emitted fluorescence at 520 nm from liposome dispersions (10 mM lipid in 10 mM Tris). An absolute leakage scale was obtained by disrupting the liposomes at the end of the experiment through addition of 0.8 mM Triton X100 (Sigma, St Louis, MO), causing 100% release and dequenching of CF. Although calcein is frequently used for pH-dependent leakage studies, the high charge of this dye has been noted to influence its leakage behavior in the presence of highly cationic peptides. Instead, therefore, CF was used as a leakage marker at both pH 6.0 and 7.4, avoiding pH-dependent fluorescence effects through neutralization prior to probing the limiting leakage in case of pH 6.0 leakage. Throughout, a SPEX-fluorolog 1650 0.22-m double spectrometer (SPEX Industries, Edison, NJ) was used for the liposome leakage assay. Measurements were performed in at least triplicate at 37°C."}},
  "data": [
    {"molecule": "β-microseminoprotein (natural protein, human, UniProt P08118 21-114, looked up, human β-microseminoprotein (MSP, PSP94), native protein purified from seminal plasma; also called MSP; PSP94) SCYFIPNEGVPGDSTRKCMDLKGNKHPINSEWQTDNCETCTCYETEISCCTLVSTPVGYDKDNCQRIFKKEDCKYIVVEKKDPKKTCSVSEWII", "values": [
      {"measurement": "Estimate (difference between means of log values)", "setting": "[1]; 25 µM MSP + 25 µM EDTA + 0.5 mM calcium, experiment 1", "result": -0.9947},
      {"measurement": "Estimate (difference between means of log values)", "setting": "[1]; 25 µM MSP + 25 µM EDTA + 0.5 mM calcium, experiment 2", "result": -0.9876},
      {"measurement": "Estimate (difference between means of log values)", "setting": "[1]; 25 µM MSP + 25 µM EDTA + 0.5 mM calcium, experiment 3", "result": -1.0805},
      {"measurement": "Estimate (difference between means of log values)", "setting": "[1]; 25 µM MSP + 25 µM EDTA + 0.5 mM magnesium, experiment 1", "result": 1.9399},
      {"measurement": "Estimate (difference between means of log values)", "setting": "[1]; 25 µM MSP + 25 µM EDTA + 0.5 mM magnesium, experiment 2", "result": 2.1624},
      {"measurement": "Estimate (difference between means of log values)", "setting": "[1]; 25 µM MSP + 25 µM EDTA + 0.5 mM magnesium, experiment 3", "result": 1.6349},
      {"measurement": "Estimate (difference between means of log values)", "setting": "[1]; 25 µM MSP + 25 µM EDTA, experiment 1", "result": 4.1638},
      {"measurement": "Estimate (difference between means of log values)", "setting": "[1]; 25 µM MSP + 25 µM EDTA, experiment 2", "result": 4.7089},
      {"measurement": "Estimate (difference between means of log values)", "setting": "[1]; 25 µM MSP + 25 µM EDTA, experiment 3", "result": 4.1911},
      {"measurement": "Estimate (difference between means of log values)", "setting": "[1]; 25 µM, experiment 1", "result": -0.06377},
      {"measurement": "Estimate (difference between means of log values)", "setting": "[1]; 25 µM, experiment 2", "result": -0.4481},
      {"measurement": "Estimate (difference between means of log values)", "setting": "[1]; 25 µM, experiment 3", "result": -0.4892},
      {"measurement": "Fungicidal activity in CFU assay", "setting": "[1]; native MSP 10 µM + 20 µM EDTA or recombinant dialyzed MSP 10 µM + 10 µM EDTA", "result": "prominent fungicidal activity"},
      {"measurement": "Candidacidal activity in CFU assay", "setting": "[1]; neutral and acidic pH, without EDTA", "result": "no candidacidal activity"},
      {"measurement": "Liposome leakage", "setting": "[2]; pH 6.0, +EDTA, DOPC/ergosterol liposomes", "result": "53±5", "unit": "%"},
      {"measurement": "Liposome leakage", "setting": "[2]; pH 6.0, without EDTA, DOPC/ergosterol liposomes", "result": "36±8", "unit": "%"},
      {"measurement": "Liposome leakage", "setting": "[2]; pH 7.4, +EDTA", "result": "20±6", "unit": "%"},
      {"measurement": "Liposome leakage", "setting": "[2]; pH 7.4, without EDTA", "result": "20±5", "unit": "%"}
    ]}
  ]
}
